Target: DesC, NADH-dependent 20α-hydroxysteroid dehydrogenase of Clostridium scindens ATCC 35704 (Clostridium scindens ATCC 35704)
Assay: crystal structure

Substance: DesC, NADH-dependent 20α-hydroxysteroid dehydrogenase of Clostridium scindens ATCC 35704 (enzyme)
- stoichiometry N: 4

Source: doi:10.1101/2020.06.12.149468
